The numbers were not newly measured in PMC7106362, which cites them from elsewhere.

This data set has as its target m157 (Murine cytomegalovirus) (UniProt A8E1S5). Put plainly: SPR. Background: In SPR one partner is held on a chip, and binding of the other changes the refractive index at the surface.

As usually defined, the Kd is the free concentration of one partner at which half of the binding sites on the other are occupied at equilibrium, for simple one-to-one binding. Regarding Ly49H (from UniProt Q60682), the Kd is 1 µM.
